Source: patent US20110104789A1

Columns and labels:
[1] = biological target: human EF-2 mutant (G717R) (human) (UniProt P13639); assay: cell-based or functional assay
[2] = biological target: human elongation factor 2 (EF-2) (human) (UniProt P13639); assay: cell-based or functional assay

“DT-A(176) (from UniProt P00587 26-210) (enzyme)” was tested, and the GFP-positive cells relative to control vector pNL-GFP-RRE-SA, DT-resistant EF-2 mutant cell line 5H7 [1] was 70 to 80%.
“DT-A(E148D) (from UniProt P00587 26-210) (enzyme)” gave a GFP-positive cells relative to control vector pNL-GFP-RRE-SA, DT-resistant EF-2 mutant cell line 5H7 [1] of 70 to 80%.
“DT-A(E148S) (from UniProt P00587 26-210) (enzyme)” was tested, and the GFP-positive cells relative to control vector pNL-GFP-RRE-SA, DT-resistant EF-2 mutant cell line 5H7 [1] was 70 to 80%.
With “DT-AΔN (from UniProt P00587 39-210) (enzyme)” the GFP-positive cells relative to control vector pNL-GFP-RRE-SA, DT-resistant EF-2 mutant cell line 5H7 [1] was 70 to 80%.
For “wild type diphtheria toxin A chain (DT-A) (from UniProt P00587 26-210) (enzyme)”, the GFP-positive cells after cotransfection with pNL-DT-GFP-RRE-SA plus pCMVΔR8.2, EF-2 mutant clone 4H10 (FIG. 4A) [1] was 14%, the GFP-positive cells after cotransfection with pNL-DT-GFP-RRE-SA plus pCMVΔR8.2, EF-2 mutant clone 5E12 (FIG. 4A) [1] was 9% and the GFP-positive cells after cotransfection with pNL-DT-GFP-RRE-SA plus pCMVΔR8.2, EF-2 mutant clone 5H7 (FIG. 4A) [1] was 46%. It also gave a GFP-positive cells after cotransfection with pNL-DT-GFP-RRE-SA plus pCMVΔR8.2, EF-2 mutant clone AB1 (FIG. 4A) [1] of 24%, a GFP-positive cells after cotransfection with pNL-DT-GFP-RRE-SA plus pCMVΔR8.2, EF-2 mutant clone CB2 (FIG. 4A) [1] of 28% and a GFP-positive cells, 5H7 cells (FIG. 4B; control pNL-DT(R)-GFP-RRE-SA gave 64%) [1] of 54%. It also gave a share of 5H7 cells surviving the toxin [1] greater than 80%, a GFP-positive cells after cotransfection with pNL-DT-GFP-RRE-SA plus pCMVΔR8.2, parental HEK293T cells (FIG. 4A) [2] of 0% and a GFP-positive cells, HEK293T cells (FIG. 4B; control pNL-DT(R)-GFP-RRE-SA gave 43%) [2] of 0%.
